For experiment [1], the target named is 32 different targets including GPC3, GPC5, and other TNF receptor proteins. Description: off-target ELISA on 32 coated targets, sum of the ratios at 100 nM and 10 nM. (ELISA stands for enzyme-linked immunosorbent assay.)
For experiment [2] the target is unchanged. Description: off-target ELISA on 32 coated targets, binder at 10 nM, signals normalized to control antibody SEQ ID NOs: 106 and 107 and summed.
The target is the same in experiment [3]. Put plainly: off-target ELISA on 32 coated targets, binder at 100 nM, signals normalized to control antibody SEQ ID NOs: 106 and 107 and summed.

B1: GPC3 antibody as included in the fusion protein (SEQ ID NOs: 81 and 82) (antibody, human IgG4 S228P, kappa, F234A L235A, V domains shown)
VH: QVQLVQSGAEVKKPGASVKVSCKASGYTFTDYEMHWVRQAPGQGLEWMGALDPKTGDTAYSQKFKGRVTLTADKSTSTAYMELSSLTSEDTAVYYCTRFYSYTYWGQGTLVTLVS
VL: DVVMTQSPLSLPVTPGEPASISCRSSQSLVHSNRNTYLHWYLQKPGQSPQLLIYKVSNRFSGVPDRFSGSGSGTDFTLKISRVEAEDVGVYYCSQNTHVPPTFGQGTKLEIKR
Consider B1, for which the sum of cumulative binding ratios in experiment [1] worked out at 129. Moreover, the cumulative binding ratio in experiment [2] worked out at 48; in experiment [3] it was 81.

Values taken from patent publication US20220153864A1.
